Measured values from the FLAb antibody collection (doi:10.1101/2023.12.08.570889).
Numbering of substitutions follows the chain as printed.

B1: unnamed (protein)
chain 1: QMQLVESGGGVVQPGRSLRLSCAASGFTFSTFAMHWVRQAPGKGLEWVAVIWYDGSNKHYADSVKGRFTITRDNSKNTLNLQMNSLRAEDTAVYYCARAPRYDEEYEAFDVWGQGTMVTVSS
chain 2: SYVLTQPPSVSVAPGQTARITCGGNNLGSKSVHWYQQKPGQAPVLVVYDDSDRPSWIPERFSGSNSGNTATLTISRGEAGDEADYYCQVWDSSSDHVVFGGGTKLTVL
B2: unnamed (protein)
chain 1: B1 chain 1 with E105D
chain 2: B1 chain 2
B3: unnamed (protein)
chain 1: B1 chain 1 with E104D, E105Y, Y106L
chain 2: B1 chain 2
B4: unnamed (protein)
chain 1: B1 chain 1 with T31S, E104D, E105Y
chain 2: B1 chain 2
B5: unnamed (protein)
chain 1: B1 chain 1 with A99S, E104W, E105Y
chain 2: B1 chain 2
B6: unnamed (protein)
chain 1: B1 chain 1 with A99S, E105Y, Y106W
chain 2: B1 chain 2
B7: unnamed (protein)
chain 1: B1 chain 1 with A99S, E105Y, Y106L
chain 2: B1 chain 2
B8: unnamed (protein)
chain 1: B1 chain 1 with E105Y, Y106V
chain 2: B1 chain 2
B9: unnamed (protein)
chain 1: B1 chain 1 with F32Y, E104D, E105A
chain 2: B1 chain 2
B10: unnamed (protein)
chain 1: B1 chain 1 with F32Y, E104Y, E105Y, Y106W
chain 2: B1 chain 2
B11: unnamed (protein)
chain 1: B1 chain 1 with T31S, F32Y, E104D, E105Y
chain 2: B1 chain 2
B12: unnamed (protein)
chain 1: B1 chain 1 with F32Y, E104D, E105Y, Y106L
chain 2: B1 chain 2
B13: unnamed (protein)
chain 1: B1 chain 1 with F32Y, D103Y, E104Y, E105Y
chain 2: B1 chain 2
B14: unnamed (protein)
chain 1: B1 chain 1 with F32Y, A99S, E104W, E105Y
chain 2: B1 chain 2
B15: unnamed (protein)
chain 1: B1 chain 1 with E104D
chain 2: B1 chain 2
B16: unnamed (protein)
chain 1: B1 chain 1 with E104D, E105A
chain 2: B1 chain 2
B17: unnamed (protein)
chain 1: B1 chain 1 with F32Y, D103Y, E105Y, Y106W
chain 2: B1 chain 2
B18: unnamed (protein)
chain 1: B1 chain 1 with A99S, E104D, E105Y
chain 2: B1 chain 2
B19: unnamed (protein)
chain 1: B1 chain 1 with D103Y, E105Y, Y106W
chain 2: B1 chain 2

target: TSLP, Q969D9; assay: Kd (SPR)

Kd	Binder
240 nM	B1
148 nM	B2
159 nM	B3
136 nM	B4
126 nM	B5
31.6 nM	B6
117 nM	B7
129 nM	B8
370 nM	B9
151 nM	B10
153 nM	B11
152 nM	B12
152 nM	B13
96.3 nM	B14
180 nM	B15
387 nM	B16
285 nM	B17
172 nM	B18
190 nM	B19
